Source: patent publication US20250059258A1

What was measured:
[1] = target: Herceptin Fab with a kappa light chain and binding specificity for Her2/neu (from the monoclonal antibody trastuzumab); assay: BLI (ForteBio), biotinylated ligand on sensor, 1:1 fit
[2] = target: Tremfya Fab with a lambda light chain and binding specificity for IL23 (from the monoclonal antibody guselkumab); assay: as above
[3] = target: dimeric human IgG-lambda (Southern Biotech, Birmingham AL); assay: as above
[4] = target: Herceptin Fab with a kappa light chain and binding specificity for Her2/neu (from the monoclonal antibody trastuzumab); assay: BLI (ForteBio), biotinylated ligand on sensor, as in Example 2
[5] = target: Tremfya Fab with a lambda light chain and binding specificity for IL23 (from the monoclonal antibody guselkumab); assay: as above
[6] = target: dimeric human IgG-lambda (Southern Biotech, Birmingham AL); assay: as above
[7] = target: Ajovy (IgG2 monoclonal antibody); assay: BLI, biotinylated ligand on sensor; 'Binding affinity (nM)'
[8] = target: Dupixent (IgG4 monoclonal antibody); assay: as above
[9] = target: Praluent (IgG1 monoclonal antibody); assay: as above

Row | Binder | Kd [1] | Kd [2] | Kd [3] | Kd [4] | Kd [5] | Kd [6] | Kd [7] | Kd [8] | Kd [9]
1 | affinity ligand SEQ ID NO: 89 (designed binder, biotinylated (AviTag system)) MGGGGSAAAGDEAQHWENQGAAYAARGDYDRAIEYYGRALELDPNNAWAWWELGVAYAARGDYDRAIEYYERALELDPDDATTWSRLGHAYAARGDYDRAIEYYERALELDPEDETARYLLEHARRARQGQAGQGGGSGLNDIFEAQKIEWHECHHHHHH | 41 nM | 8 nM | < 1 nM | 41 nM | 8 nM | < 1 nM |  |  | 
2 | affinity ligand SEQ ID NO: 90 (designed binder, biotinylated (AviTag system)) MGGGGSAAAGDEAQCWENQGAAYAARGDYDRAIEYYERALELDPNNAWAWWELGVAYAARGDYDRAIEYYERALELDPDDATTWSRLGHAYAARGDYDRAIEYYVRALELDPEDETARYLLEHARRARQGQAGQGGGSGLNDIFEAQKIEWHECHHHHHH | 51 nM | 12 nM | < 1 nM | 51 nM | 12 nM | < 1 nM |  |  | 
3 | affinity ligand SEQ ID NO: 41 (designed binder, biotinylated (AviTag system)) MAQAAAGDEAQRWETLGAAYAARGDYDRAIEYYQRALELDPNNAWAWWELGVAYAARGDYDRAIEYYQRALELDPDDAAAWRRLGHAYAARGDYDRAIEYYERALELDPEDELARRILEDARRARQGQAGQGGGSGLNDIFEAQKIEWHECHHHHHH |  |  |  | 15 nM | 24 nM | 3 nM |  |  | 

The remaining lines, values ahead:

Row | Kd [1] | Kd [2] | Kd [3] | Kd [4] | Kd [5] | Kd [6] | Kd [7] | Kd [8] | Kd [9] | Binder
4 | 28 nM | 8 nM | < 1 nM | 28 nM | 8 nM | < 1 nM |  |  |  | affinity ligand SEQ ID NO: 92 (designed binder, biotinylated (AviTag system)) MGGGGSAAAGDEAQRWENQGAAYAARGDYDRAIEYYERALELEPNNAWAWWELGVAYAARGDYDRAIEYYERALELDPDDATAWSRLGHAYAARGDYDRAIGYYERALELDPENETARYLLEHARRARQGQAGQGGGSGLNDIFEAQKIEWHECHHHHHH
5 |  |  |  |  |  |  | 665 nM | 25 nM | < 1 nM | affinity ligand SEQ ID NO: 162 (designed binder, biotinylated (AviTag system)) MGLAEAAAREAAARAADEAERWYDLGAAYAARGDYDRAIEYYQRALELDPNDAWAWWELGVAYAARGDYDRAIEYYQRALELDLNNAVAWARLGIAYAARGDYDRAIEYYQRALELDPNNEVARDALEYARRARRHHHHHH
